# Where two headings read alike, the source gives them in different places.
# T1: human OX40 expressed on HEK293A cells (human, UniProt P43489 29-277)
# T1 construct: also called HEK293A/huOX40; HEK293A/human OX40 cells
# T1 sequence: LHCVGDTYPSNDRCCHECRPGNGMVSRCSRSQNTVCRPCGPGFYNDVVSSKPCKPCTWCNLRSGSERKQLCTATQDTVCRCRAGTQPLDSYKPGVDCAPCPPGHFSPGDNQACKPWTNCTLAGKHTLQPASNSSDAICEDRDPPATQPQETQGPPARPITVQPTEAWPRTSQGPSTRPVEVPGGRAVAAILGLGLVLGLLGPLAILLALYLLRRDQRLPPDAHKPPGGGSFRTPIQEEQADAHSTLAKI
# T2: rhesus OX40 expressed on HEK293A cells (rhesus, UniProt P43489 29-277 (human entry))
# T2 construct: also called HEK293A/rhOX40; HEK293A/rhesusOX40 cells
# T2 chain: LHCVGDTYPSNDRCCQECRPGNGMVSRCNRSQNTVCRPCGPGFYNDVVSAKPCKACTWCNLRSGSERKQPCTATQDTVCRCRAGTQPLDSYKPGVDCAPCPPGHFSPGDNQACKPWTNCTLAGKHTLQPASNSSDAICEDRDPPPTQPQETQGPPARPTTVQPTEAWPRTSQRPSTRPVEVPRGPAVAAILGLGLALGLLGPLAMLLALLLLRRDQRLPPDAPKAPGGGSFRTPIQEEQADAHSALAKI
# T3: recombinant human OX40-his (Sino Biological, Cat#:10481-H03H) (human, UniProt P43489 29-214)
# T3 construct: bought protein; also called hOX40-his; not shown: His tag
# T3 sequence: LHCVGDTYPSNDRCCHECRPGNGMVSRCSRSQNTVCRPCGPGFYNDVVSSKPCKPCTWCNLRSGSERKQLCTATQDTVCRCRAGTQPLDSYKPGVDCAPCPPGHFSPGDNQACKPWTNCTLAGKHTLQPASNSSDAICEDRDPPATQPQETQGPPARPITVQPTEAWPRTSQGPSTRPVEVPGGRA
# T4: murine OX40-His (Crown, Cat#: E3350-B1707) (mouse, UniProt P47741 20-211)
# T4 construct: bought protein; also called mouse OX40-his; muOX40-his; not shown: His tag
# T4 sequence: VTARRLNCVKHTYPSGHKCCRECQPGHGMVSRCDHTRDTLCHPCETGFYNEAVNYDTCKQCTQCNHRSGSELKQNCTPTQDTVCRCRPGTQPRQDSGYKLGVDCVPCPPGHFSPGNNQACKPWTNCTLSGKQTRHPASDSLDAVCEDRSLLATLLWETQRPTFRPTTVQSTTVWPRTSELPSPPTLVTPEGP
# T5: recombinant rhesus OX40-his (Sino Biological, Cat#:90846-C08H) (rhesus monkey, UniProt P43489 29-214 (human entry))
# T5 construct: bought protein; also called monkey OX40-his; rhOX40-his; not shown: His tag
# T5 chain: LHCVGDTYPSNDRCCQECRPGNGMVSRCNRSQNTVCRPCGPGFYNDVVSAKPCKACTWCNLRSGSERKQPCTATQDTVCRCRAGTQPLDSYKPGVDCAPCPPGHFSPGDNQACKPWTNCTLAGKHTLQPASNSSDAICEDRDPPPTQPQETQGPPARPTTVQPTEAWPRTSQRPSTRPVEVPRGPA
# How the values were obtained:
# [1] = biological target: T1, human OX40 expressed on HEK293A cells; assay: FACS on HEK293A/huOX40 cells
# [2] = biological target: T2, rhesus OX40 expressed on HEK293A cells; assay: FACS on HEK293A/rhOX40 cells
# [3] = biological target: T3, recombinant human OX40-his (Sino …); assay: SPR Biacore 8K, OX40-His on chip, antibody injected
# Procedure: SPR assays were used to determine the binding affinity of the chimetic or humanized anti-OX40 antibodies to human OX40 with the BIAcore™ 8K instrument (GE Life Sciences). Briefly, 100-200 response units (RU) of human OX40-His protein (Sino Biological, CN, Cat#:10481-H03H, Lot no.: MA08MA3003) were coupled to CM5 biosensor chips (Cat#: BR-1005-30, GE Life Sciences), followed by blocking of un-reacted groups with 1M ethanolamine. Serially diluted antibodies at concentrations ranging from 0.3 µM to 10 µM were injected into the SPR running buffer (HBS-EP buffer, pH7.4, GE Life Sciences; US; Cat#:BR-1006-69) at 30 µL/minute. The binding capacitity was calculated with the RUs of blank controls subtracted. The association rate (k_a) and dissociation rate (k_d) were calculated using the one-to-one Langmuir binding model (BIA Evaluation Software, GE Life Sciences). The equilibrium dissociation constant K_D was calculated as the k_d/k_a ratio.
# [4] = biological target: T4, murine OX40-His (Crown, Cat#: …); assay: ELISA on coated mouse OX40-His, OD450
# [5] = biological target: T5, recombinant rhesus OX40-his (Sino …); assay: ELISA on coated rhesus OX40-His, OD450
# [6] = biological target: T2, rhesus OX40 expressed on HEK293A cells; assay: FACS on HEK293A/rhesus OX40 cells, MFI (panel without title; monkey OX40 by the legend)
# Procedure: Briefly, 10^5 HEK293A cells were seeded into each well of the 96-well plates and serially diluted anti-OX40 antibodies were added to the plates. After incubated at 4° C. for 1 hour, plates were washed 3 times with PBST. Then, an APC coupled Goat Anti-Mouse IgG (BioLegen, US, Cat#: 405308) diluted 500× was added to the plates. After incubation at 4° C. for 1 hour, the plates were washed with PBS for 3 times and then cell fluorescence was monitored using a FACS machine (BD).
# Example 15 Humanized Anti-OX40 Antibodies Bound to Human or Rhesus OX40 Expressed on HEK293A Cells The humanized anti-OX40 antibodies were also tested for their ability of binding to HEK293A/huOX40 cells or HEK293A/rhOX40 cells, following the FACS analysis protocol as described in Example 5.
# [7] = biological target: T5, recombinant rhesus OX40-his (Sino …); assay: ELISA on coated rhesus OX40-His, OD450
# [8] = biological target: T4, murine OX40-His (Crown, Cat#: …); assay: ELISA on coated mouse OX40-His, OD450; remark: listed apart in the source
# [9] = biological target: T3, recombinant human OX40-his (Sino …); assay: ELISA on coated human OX40-His, OD450
Binder,EC50 [1],EC50 [2],Kd [3],koff [3],kon [3],binding result [4],binding result [5],binding result [6],EC50 (read off the curve) [7],binding result [8],EC50 (read off the curve) [9]
"chimeric antibody 6A12 (antibody, human IgG1, kappa, V domains shown, mouse variable regions with human IgG1/kappa constant regions) VH: QVQLQQSGPELVKPGASVKISCKASGYAFSSSWMNWVKQRPGKGLEWIGRIYPGDGITNYNGNFKGKATLTADKSSSTAYMQLSGLTSADSAVYFCAREFIPLGWGTGTTVTVSS VL: DIVMTQTPFSNPVTLGTSASISCRSSKSLLHSNGITYLYWYLQKPGQSPQLLIYQMSNLASGVPDRFSSSGSGTDFTLRISRVEAEDVGVYYCAQNLELPWTFGGGTKLEIKR",177 ng/mL,883 ng/mL,,,,,,,,,
"68C8-VH2VL2 (antibody, human IgG1, kappa, V domains shown, humanized; also called 68C8-H2L2) VH: QVQLVQSGAEVKKPGASVKVSCKVSGDTFTSYWITWVRQRPGKGLEWMGDIHPGSGSTNNNEKFKNRVTMTVDTSTDTAYMELSSLRSEDTAVYYCATLRPYYFVYWGQGTLVTVSS VL: DIQMTQSPSSLSASVGDRVTITCRASQDISNYLNWYQQKPGKTPKLLIYYTSRLLSGVPSRFSGSGSGTDYTLTISSLQPEDFATYYCQQGNTLPLTFGQGTRLEIKR",,,5.07 nM,0.00105 s⁻¹,207000 M⁻¹ s⁻¹,no binding (tested: 10000 ng/ml (log 4)),binds,binds,,,
"71H8-VH0VL0 (antibody, human IgG1, kappa, V domains shown, humanized; also called 71H8-H0L0) VH: QVQLVQSGAEVKKPGASVKVSCKVSGDTFTSYWITWVRQAPGKGLEWMGDIYPGSGSTNQNEKFKSRVTMTEDTSTDTAYMELSSLRSEDTAVYYCATLRPYYFVYWGQGTLVTVSS VL: DIQMTQSPSSLSASVGDRVTITCRASQDISNYLNWYQQKPGKAPKLLIYYTSRLLSGVPSRFSGSGSGTDFTLTISSLQPEDFATYYCQQGNTLPLTFGQGTRLEIKR",,,9.21 nM,0.00274 s⁻¹,297000 M⁻¹ s⁻¹,,,binds,~3 ng/mL,no binding (tested: 10000 ng/ml (log 4)),~3 ng/mL
"71H8-VH3VL3 (antibody, human IgG1, kappa, V domains shown, humanized; also called 71H8-H3L3) VH: QVQLVQSGAEVKKPGASVKVSCKVSGYTFTSYWITWVRQRPGQGLEWIGDIYPGSGSTNQNEKFKSRVTLTVDTSTDTAYMELSSLRSEDTAVYYCATLRPYYFVYWGQGTLVTVSS VL: DIQMTQSPSSLSASVGDRVTITCRASQDISNYLNWYQQKPGKTVKLLIYYTSRLLSGVPSRFSGSGSGTDYTLTISSLQPEDFATYFCQQGNTLPLTFGQGTRLEIKR",,,6.36 nM,0.00207 s⁻¹,325000 M⁻¹ s⁻¹,,,binds,~3 ng/mL,no binding (tested: 10000 ng/ml (log 4)),~3 ng/mL
"68C8-VH3VL2 (antibody, human IgG1, kappa, V domains shown, humanized; also called 68C8-H3L2) VH: QVQLVQSGAEVKKPGASVKVSCKVSGDTFTSYWITWVRQRPGQGLEWIGDIHPGSGSTNNNEKFKNRVTLTVDTSTDTAYMELSSLRSEDTAVYYCATLRPYYFVYWGQGTLVTVSS VL: DIQMTQSPSSLSASVGDRVTITCRASQDISNYLNWYQQKPGKTPKLLIYYTSRLLSGVPSRFSGSGSGTDYTLTISSLQPEDFATYYCQQGNTLPLTFGQGTRLEIKR",,,9.55 nM,0.00157 s⁻¹,165000 M⁻¹ s⁻¹,no binding (tested: 10000 ng/ml (log 4)),binds,binds,,,

# Continued by falling Kd [3], values first:
EC50 [1],EC50 [2],Kd [3],koff [3],kon [3],binding result [4],binding result [5],binding result [6],EC50 (read off the curve) [7],binding result [8],EC50 (read off the curve) [9],Binder
,,4.81 nM,0.00172 s⁻¹,358000 M⁻¹ s⁻¹,,,binds,~3 ng/mL,no binding (tested: 10000 ng/ml (log 4)),~3 ng/mL,"71H8-VH2VL2 (antibody, human IgG1, kappa, V domains shown, humanized; also called 71H8-H2L2) VH: QVQLVQSGAEVKKPGASVKVSCKVSGYTFTSYWITWVRQRPGKGLEWMGDIYPGSGSTNQNEKFKSRVTMTVDTSTDTAYMELSSLRSEDTAVYYCATLRPYYFVYWGQGTLVTVSS VL: DIQMTQSPSSLSASVGDRVTITCRASQDISNYLNWYQQKPGKTPKLLIYYTSRLLSGVPSRFSGSGSGTDYTLTISSLQPEDFATYYCQQGNTLPLTFGQGTRLEIKR"
,,4.49 nM,0.00184 s⁻¹,410000 M⁻¹ s⁻¹,no binding (tested: 10000 ng/ml (log 4)),binds,binds,,,,"68C8-VH0VL0 (antibody, human IgG1, kappa, V domains shown, humanized; also called 68C8-H0L0) VH: QVQLVQSGAEVKKPGASVKVSCKVSGDTFTSYWITWVRQAPGKGLEWMGDIHPGSGSTNNNEKFKNRVTMTEDTSTDTAYMELSSLRSEDTAVYYCATLRPYYFVYWGQGTLVTVSS VL: DIQMTQSPSSLSASVGDRVTITCRASQDISNYLNWYQQKPGKAPKLLIYYTSRLLSGVPSRFSGSGSGTDFTLTISSLQPEDFATYYCQQGNTLPLTFGQGTRLEIKR"
,,4.04 nM,0.000821 s⁻¹,203000 M⁻¹ s⁻¹,no binding (tested: 10000 ng/ml (log 4)),binds,binds,,,,"68C8-VH3VL3 (antibody, human IgG1, kappa, V domains shown, humanized; also called 68C8-H3L3) VH: QVQLVQSGAEVKKPGASVKVSCKVSGDTFTSYWITWVRQRPGQGLEWIGDIHPGSGSTNNNEKFKNRVTLTVDTSTDTAYMELSSLRSEDTAVYYCATLRPYYFVYWGQGTLVTVSS VL: DIQMTQSPSSLSASVGDRVTITCRASQDISNYLNWYQQKPGKTVKLLIYYTSRLLSGVPSRFSGSGSGTDYTLTISSLQPEDFATYFCQQGNTLPLTFGQGTRLEIKR"
134 ng/mL,80.7 ng/mL,0.187 nM,7.35e-05 s⁻¹,393000 M⁻¹ s⁻¹,no binding (tested: 10000 ng/ml (log 4)),,,,,,"chimeric antibody 68C8 (antibody, human IgG1, kappa, V domains shown, mouse variable regions with human IgG1/kappa constant regions) VH: QVQLQQSGAELVKPGASVKMSCKASGDTFTSYWITWVKQRPGQGLEWIGDIHPGSGSTNNNEKFKNKATLTVDTSSSTAYMQLSSLTSEDSAVYYCAKLRPYYFVYWGQGTTLTVSS VL: DIQMTQTTSSLSASLGDRVTISCRASQDISNYLNWYQQKPDGTVKLLIYYTSRLLSGVPSRFSGSGSGTDYSLTISNLEQEDIATYFCQQGNTLPLTFGAGTRLELKR"

# Reference: patent US10442866 (BEIJING MABWORKS BIOTECH, dated 2019)
